According to patent publication US10466252B2, “Methods for selecting protease resistant polypeptides” (Glaxo Group Limited, priority 2008, dated 2019):

Key:
[1] = test system: natural protease acting in E. coli cells; assay: Integrity after expression in E. coli (non reducing SDS-PAGE, mass spectrometry, Edman sequencing); details: MS and Edman sequencing
Protocol: Expression was performed by inoculation of a 50 milliliter culture of 2×TY media supplemented with OVERNIGHT EXPRESS™ autoinduction solutions (1 milliliter of Solution 1 (Cat. No. 71298), 2.5 milliliters of Solution 2 (Cat. No. 71299), 50 microliters of Solution 3 (Cat. No 71304), Novagen) and 100 microgram per milliliter of carbenicillin. Culture was carried overnight at 37° C., and then the culture supernatant was clarified by centrifugation at 3700×g for 45 minutes. The expressed protein was then purified from the clarified supernatant using PROTEIN L STREAMLINE™ (GE Healthcare, Cat. No. 28-4058-03, protein L coupled), and eluted from the Protein L using 0.1M glycine pH 2.0, then neutralized using 0.2 volumes of 1M Tris pH 8.0.
After the plasmid DNA pDOM35 comprising sequence of DMS7161 was transformed into BL21(DE3), glycerol stock was prepared from grown colonies, by scraping colonies into minimal media with glucose and addition of glycerol, final conentration of approximately 15%. Expression of DMS7161 was started by inoculation of the glycerol into 50 milliliters of minimal media (DMS7161 A) supplemented in Yeast Extract for final concentration 10 g/liter (DMS7161 B) so as to obtain the starting culture density of OD600=0.024. The culture was grown to OD600 of approximately 1.4 at 30° C., then induced by the addition of 0.1 mM isopropyl-beta-d-thiogalactoside. […]

[2] = biological target: T1, human GLP-1 receptor (Homo sapiens, UniProt P43220); assay: GLP-1 receptor assay, CHO 6CRE GLP1R cells, luciferase reporter (384-well, STEADY GLO); format: cell-based
T1 construct: expressed in transfected cells; host or cells: CHO K1 (CHO 6CRE GLP1R)
T1 sequence (P43220 24-463): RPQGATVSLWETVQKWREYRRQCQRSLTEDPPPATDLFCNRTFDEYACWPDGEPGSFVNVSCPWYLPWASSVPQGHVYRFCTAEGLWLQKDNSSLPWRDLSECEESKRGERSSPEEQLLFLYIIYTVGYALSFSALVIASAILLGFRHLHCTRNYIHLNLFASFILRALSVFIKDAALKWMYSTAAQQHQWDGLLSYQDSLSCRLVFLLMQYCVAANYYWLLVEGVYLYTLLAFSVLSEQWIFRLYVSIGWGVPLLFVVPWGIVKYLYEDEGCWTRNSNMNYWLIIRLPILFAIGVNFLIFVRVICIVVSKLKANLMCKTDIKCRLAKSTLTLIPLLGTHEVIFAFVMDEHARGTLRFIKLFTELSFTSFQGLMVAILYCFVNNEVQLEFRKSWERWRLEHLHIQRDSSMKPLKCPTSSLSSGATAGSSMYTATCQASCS
Protocol: Background: GLP-1R is a 7TM G-protein coupled receptor which is expressed on CHO cells. […] CHO cells are stably transfected with the 6CRE/luc reporter gene. […] This then catalyses a reaction with luciferin to produce light which can be measured on a luminometer.
Suspension culture was maintained for forty-eight hours. Cells were then diluted into 15 mM HEPES, 2 mM L glutamine (2.5×10^5 cells/ml) and dispensed into 384-well plates containing 10 ul/well of the compound to be assayed. After the addition of assay controls, plates were returned to the incubator for 3h at 37° C. and 5% CO2. […] Plates were placed in the reader (Packard TopCount) and pre-incubated for 5 minutes prior to reading […] and plotting of results. Compound was assayed at a range of concentrations response curve to be fitted from which pC50s were calculated.

[3] = biological target: T2, GLP-1 receptor (CHO 6CRE GLP1R cells) (Homo sapiens, UniProt P43220); assay: GLP-1 assay, CHO 6CRE GLP1R cells, luciferase reporter (96-well, BRIGHT-GLO); format: cell-based
T2 construct: expressed in transfected cells; host or cells: CHO 6CRE GLP1R cells (CHO K1)
T2 sequence (P43220 24-463): as above

B1: DMS7148: *GLP-1 variant (W25-D mutation) fused to ALBUDAB DOM7h-14 by PSS linker; SEQ ID NO: 16 (protein)
chain: HGEGTFTSDVSSYLEGQAAKEFIADLVEGRGPSSDIQMTQSPSSLSASVGDRVTITCRASQWIGSQLSWYQQKPGKAPKLLIMWRSSLQSGVPSRFSGSGSGTDFTLTISSLQPEDFATYYCAQGAALPRTFGQGTKVEIKR
modifications: Source Amino acid sequence of DMS7148 domain antibody made using molecular biology techniques.
[1]
  integrity / degradation on expression in E. coli: well expressed in E. coli with the majority of material migrating at the expected size
[2]; CHO 6CRE GLP1R cells, 3h at 37° C.
  % max response: 107%
[2]; FIG. 6
  activity in GLP-1 receptor assay compared with GLP-1 peptide: active, however less active than GLP-1 peptide

B2: DMS7161: *GLP-1 variant of DMS7148 fused to DOM7h-14-10 by PSS linker; A = minimal media, B = with Yeast Extract (protein)
chain: HGEGTFTSDVSSYLEGQAAKEFIADLVEGRGPSSDIQMTQSPSSLSASVGDRVTITCRASQWIGSQLSWYQQKPGKAPKLLIMWRSSLQSGVPSRFSGSGSGTDFTLTISSLQPEDFATYYCAQGLRHPKTFGQGTKVEIKR
modifications: Source Amino acid sequence of DMS7161 domain antibody made using molecular biology techniques.
notes: *GLP-1 variant of DMS7148 fused to DOM7h-14-10 by PSS linker; A = minimal media, B = with Yeast Extract
[3]
  activity compared with DMS7148: as active as DMS7148
[1]
  integrity / degradation on expression in E. coli: well expressed in E. coli with the majority of material migrating at the expected size
